Measured values published in paper PMC10713552 (Communications Biology, 2023).
Numbering of substitutions follows the chain as printed. Where two headings read alike, the source gives them in different places.

Tests used:
Test in all cases: BLI
[1] = biological target: T1, D614G-Hexapro (WT) spike ectodomain (SARS-CoV-2 Wuhan-Hu-1 D614G, D614G)
[2] = biological target: T2, Omicron BA.1 spike protein ectodomain (BLI) (SARS-CoV-2 Omicron BA.1, strain)
[3] = biological target: T1, D614G-Hexapro (WT) spike ectodomain; details: both partners purified
[4] = biological target: Omicron BA.5 spike protein ectodomain (BLI) (SARS-CoV-2 Omicron BA.5 (BA.4/5 spike), strain); details: both partners purified
[5] = biological target: Omicron BA.2.12 spike protein ectodomain (BLI) (SARS-CoV-2 Omicron BA.2.12.1, strain); details: both partners purified
[6] = biological target: Omicron BA.2 spike protein ectodomain (BLI) (SARS-CoV-2, Omicron BA.2, strain); details: both partners purified
[7] = biological target: T2, Omicron BA.1 spike protein ectodomain …; details: both partners purified
[8] = biological target: SARS-CoV-2 B.1.1.529.1/BA.1 S-HexaPro (SARS-CoV-2, Omicron BA.1, Ser371Leu | Ser373Pro | Ser375Phe | Q493R); details: both partners purified
[9] = biological target: SARS-CoV-2 Omicron BA.2.12.1 spike protein ectodomain (SARS-CoV-2 Omicron BA.2.12.1, S373P); details: both partners purified

B1: N3-1_Y (antibody, V domains shown)
VH: QVQLQQWGPGLVNPSETLSLTCSVSGGSFATENYYWSWIRQHPGEGLEWIGNIYFSGNTYYNPSLNNRFTISFDTSKNHLSLKLPSVTAADTAVYYCARGTIYFDYSGYRRVDPFHIWGQGTMVIVSS
VL: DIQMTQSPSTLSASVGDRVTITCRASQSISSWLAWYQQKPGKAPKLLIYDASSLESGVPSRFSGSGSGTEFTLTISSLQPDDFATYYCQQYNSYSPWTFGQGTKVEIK
notes: IgG1
Kd [1]: 233 nM
koff [1]: 0.000325 s⁻¹
kon [1]: 1400 M⁻¹ s⁻¹
Kd [2]: 3550 nM
koff [2]: 0.00213 s⁻¹
kon [2]: 600 M⁻¹ s⁻¹
Kd [3]: 5.45 nM
koff [3]: 0.000748 s⁻¹
kon [3]: 137000 M⁻¹ s⁻¹
Kd [4]: 337 nM
koff [4]: 0.0072 s⁻¹
kon [4]: 21300 M⁻¹ s⁻¹
Kd [5]: 142 nM
koff [5]: 0.00385 s⁻¹
kon [5]: 27100 M⁻¹ s⁻¹
Kd [6]: 225 nM
koff [6]: 0.00447 s⁻¹
kon [6]: 19900 M⁻¹ s⁻¹
Kd [7]: 709 nM
koff [7]: 0.00791 s⁻¹
kon [7]: 11200 M⁻¹ s⁻¹

B2: N3-1_I (antibody, V domains shown)
VH: B1 VH with Y106I
VL: not shown
notes: IgG1
Kd [1]: 1220 nM
koff [1]: 0.000796 s⁻¹
kon [1]: 651 M⁻¹ s⁻¹
Kd [2]: 20.4 nM
koff [2]: 0.00136 s⁻¹
kon [2]: 66700 M⁻¹ s⁻¹
kon [3]: 76000 M⁻¹ s⁻¹
Kd [4]: 145 nM
koff [4]: 0.00168 s⁻¹
kon [4]: 11600 M⁻¹ s⁻¹
Kd [5]: 76.9 nM
koff [5]: 0.00112 s⁻¹
kon [5]: 14600 M⁻¹ s⁻¹
Kd [6]: 121 nM
koff [6]: 0.00146 s⁻¹
kon [6]: 12100 M⁻¹ s⁻¹
Kd [7]: 331 nM
koff [7]: 0.00193 s⁻¹
kon [7]: 5820 M⁻¹ s⁻¹

B3: N3-1_I (antibody, V domains shown)
VH: B1 VH with Y106I
VL: not shown
notes: IgG1; copies: 2 + 2
fold improvement in Kd against wild-type N3-1 [8]: 4 fold
fold improvement in Kd against wild-type N3-1 [9]: 20 fold

B4: N3-1_L (antibody, V domains shown)
VH: B1 VH with Y106L
VL: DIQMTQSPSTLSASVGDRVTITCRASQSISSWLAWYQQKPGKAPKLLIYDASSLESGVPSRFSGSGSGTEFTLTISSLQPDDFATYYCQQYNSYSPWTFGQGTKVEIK
notes: IgG1
Kd [1]: 54.1 nM
koff [1]: 0.00037 s⁻¹
kon [1]: 6840 M⁻¹ s⁻¹
Kd [2]: 15200 nM
koff [2]: 0.00357 s⁻¹
kon [2]: 234 M⁻¹ s⁻¹
Kd [3]: 6 nM
koff [3]: 0.00047 s⁻¹
kon [3]: 78300 M⁻¹ s⁻¹
Kd [4]: 414 nM
koff [4]: 0.00689 s⁻¹
kon [4]: 16600 M⁻¹ s⁻¹
Kd [5]: 173 nM
koff [5]: 0.00339 s⁻¹
kon [5]: 19500 M⁻¹ s⁻¹
Kd [6]: 273 nM
koff [6]: 0.00415 s⁻¹
kon [6]: 15200 M⁻¹ s⁻¹
Kd [7]: 660 nM
koff [7]: 0.00429 s⁻¹
kon [7]: 6490 M⁻¹ s⁻¹
